These results are taken from patent US5731411, “Promotion of homologous DNA pairing by RecA-derived peptides” (The United States of America as represented by the …).

Series [1] deals with T1, FECO (RecA residues 193-212 peptide) (Escherichia coli, UniProt P0A7G8 SEQ:1-20).
T1 chain: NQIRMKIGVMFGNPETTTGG
Description: CD, random coil to beta structure, pH 7.5. As to conditions: protein: synthetic; tags: synthetic peptide, HPLC purified.

Series [2] deals with T1, FECO (RecA residues 193-212 peptide). Description: filter; 10 mM MgCl2, pH 8.3, room temp; less tight without Mg; unstacks ssDNA (permanganate); joint molecules with homologous pBluescript but not pUC19 (Example 5). As to conditions: protein: synthetic; tags: synthetic peptide, HPLC purified; label: 5' 32P.
For series [3], the target named is T2, WT-14 (RecA residues 196-209 peptide) (Escherichia coli, UniProt P0A7G8).
T2 chain: RMKIGVMFGNPETT
Nature of the series: filter; peptide up to 100 uM, pH 8.3; no joint molecules. The conditions noted are these: protein: synthetic; tags: synthetic peptide, HPLC purified; label: 5' 32P.

B1: 57-mer ssDNA (ssDNA)
DNA: CTGTCTACTCTCGAGGTTAACCCGTGCGAATTCTACGATTGGTGCGGCCGGTATATC
Turning to B1, in series [1], the binding result is reported as “binds”.

B2: BS-S1 ssDNA (ssDNA)
DNA: GGCCGCTCTAGAACTAGTGGATCCCCCGGGCTGCAGGAATTCGATATCAAGCT
For the molecule B2, the binding result in series [2] is recorded as “binds”; in series [3] it was “no binding”.
